Experimental findings from US20190336529A1 (OSLO UNIVERSITETSSYKEHUS HF, published 2019) are described below.

Experiment [1] has as its target MART-1 26-35 peptide (SEQ ID NO: 56) presented by HLA-A2 on cells (human). The experiment is described as follows: cell-based or functional assay.
For experiment [2], the target named is MART-1 peptide on HLA-A*02:01 (human). The experiment in a line: CD107a by flow cytometry; sorted TCR+ CD8- T cells incubated for 5 hours with peptide-loaded T2 cells. The result sentence names SEQ ID NO: 56, but the method says the cells were loaded with the analogue SEQ ID NO: 80.; full-length, on cells.
In experiment [3] the target is TGFβRII frameshift peptide p573 (SEQ ID NO: 1) presented by HLA-A2 on cells (human). The experiment in a line: cell-based or functional assay.

In the case of “MART-1-specific TCR DMF5 (on the surface of transduced T-cells)”, the EC50 of the peptide for CD107a staining of TCR+ CD8- T-cells after 5 hours with peptide-loaded HLA-A2+ T2 cells in experiment [1] came to 7 nM.

DMF5 returned an EC50 of peptide in experiment [2] of 7 nM.

B1: Radium-1 TCR (full-length, on the surface of T-cells) (TCR, V domains shown)
V domain 1: GIQVEQSPPDLILQEGANSTLRCNFSDSVNNLQWFHQNPWGQLINLFYIPSGTKQNGRLSATTVATERYSLLYISSSQTTDSGVYFCAVNAGNMLTFGGGTRLMVKP
V domain 2: DVKVTQSSRYLVKRTGEKVFLECVQDMDHENMFWYRQDPGLGLRLIYFSYDVKMKEKGDIPEGYSVSREKKERFSLILESASTNQTSMYLCASSSGVTGELFFGEGSRLTVLE
In the case of B1, in experiment [3], the “EC50 of the peptide for CD107a staining of TCR+ CD8- T-cells after 5 hours with peptide-loaded HLA-A2+ T2 cells” value is 2 nM.
